# Patent publication US20040087497
# How the values were obtained:
# Suc-Ile-Ala-Leu-Dox = test system: T1, Suc-Ile-Ala-Leu-Dox
# T1 sequence: XAX
# Suc-Leu-Ala-Gly-Dox = test system: T2, Suc-Leu-Ala-Gly-Dox
# T2 sequence: XAX
# Suc-Leu-Ala-Leu-Dox = test system: T3, Suc-Leu-Ala-Leu-Dox
# T3 sequence: XAX
# Suc-βAla-Ile-Ala-Leu-Dox = test system: T4, Suc-βAla-Ile-Ala-Leu-Dox
# T4 sequence: XIAX
# Suc-βAla-Leu-Ala-Leu-Dox = test system: T5, Suc-βAla-Leu-Ala-Leu-Dox
# T5 sequence: XLAX
# Suc-Leu-Tyr-Leu-Dox = test system: T6, Suc-Leu-Tyr-Leu-Dox
# T6 sequence: XYX
# Suc-Met-Ala-Leu-Dox = test system: T7, Suc-Met-Ala-Leu-Dox
# T7 sequence: XAX
# Suc-βAla-Leu-Ala-Leu-pNA = test system: T8, Suc-βAla-Leu-Ala-Leu-pNA
# T8 sequence: XLAX
# Suc-βAla-Leu-Tyr-Leu-Dox = test system: T9, Suc-βAla-Leu-Tyr-Leu-Dox
# T9 sequence: XLYX
# [1] = scale: fraction relative to Suc-βAla-Leu-Ala-Leu-Dox
substance,measurement,setting,value
thimet oligopeptidase,Cleavage by thimet oligopeptidase,Suc-Ile-Ala-Leu-Dox,-
same,Cleavage by thimet oligopeptidase,Suc-Leu-Ala-Gly-Dox,+
same,Cleavage by thimet oligopeptidase,Suc-Leu-Ala-Leu-Dox,+
same,Cleavage by thimet oligopeptidase,Suc-βAla-Ile-Ala-Leu-Dox,-
same,Cleavage by thimet oligopeptidase,Suc-βAla-Leu-Ala-Leu-Dox,+
purified Porcine Kidney CD10 (Elastin Products Company),% hydrolysis/10 hr (% hydrolysis/10 hr),Suc-Ile-Ala-Leu-Dox,12.5
same,Cleaved by CD10,Suc-Ile-Ala-Leu-Dox,+
same,Fraction hydrolyzed relative to standard,Suc-Ile-Ala-Leu-Dox; [1],1.1
same,% hydrolysis/10 hr (% hydrolysis/10 hr),Suc-Leu-Ala-Gly-Dox,0
same,Cleaved by CD10,Suc-Leu-Ala-Gly-Dox,-
same,Fraction hydrolyzed relative to standard,Suc-Leu-Ala-Gly-Dox; [1],0
same,% hydrolysis/10 hr (% hydrolysis/10 hr),Suc-Leu-Ala-Leu-Dox,8.3
same,Cleaved by CD10,Suc-Leu-Ala-Leu-Dox,+
same,Fraction hydrolyzed relative to standard,Suc-Leu-Ala-Leu-Dox; [1],0.75
same,% hydrolysis/10 hr (% hydrolysis/10 hr),Suc-Leu-Tyr-Leu-Dox,0
same,Fraction hydrolyzed relative to standard,Suc-Leu-Tyr-Leu-Dox; [1],0
same,% hydrolysis/10 hr (% hydrolysis/10 hr),Suc-Met-Ala-Leu-Dox,37.7
same,Fraction hydrolyzed relative to standard,Suc-Met-Ala-Leu-Dox; [1],3.5
same,% hydrolysis/10 hr (% hydrolysis/10 hr),Suc-βAla-Ile-Ala-Leu-Dox,22.1
same,Cleaved by CD10,Suc-βAla-Ile-Ala-Leu-Dox,+
same,Fraction hydrolyzed relative to standard,Suc-βAla-Ile-Ala-Leu-Dox; [1],2
same,% hydrolysis/10 hr (% hydrolysis/10 hr),Suc-βAla-Leu-Ala-Leu-Dox,10.9
same,Cleaved by CD10,Suc-βAla-Leu-Ala-Leu-Dox,+
same,Fraction hydrolyzed relative to standard,Suc-βAla-Leu-Ala-Leu-Dox; [1],1
same,rate of cleavage (release of Leu-pNA) relative to Suc-βAla-Leu-Ala-Leu-Dox (release of Leu-Dox),Suc-βAla-Leu-Ala-Leu-pNA,590 times more rapidly cleaved
same,% hydrolysis/10 hr (% hydrolysis/10 hr),Suc-βAla-Leu-Tyr-Leu-Dox,0
same,Fraction hydrolyzed relative to standard,Suc-βAla-Leu-Tyr-Leu-Dox; [1],0
